Test results as given in US20210324099A1 (Chugai, published 2021).

T1: hFcgRIIaR (human, UniProt P12318 34-217)
T1 construct: extracellular domain; also called human FcγRIIa type R (R131)
T1 sequence (looked up): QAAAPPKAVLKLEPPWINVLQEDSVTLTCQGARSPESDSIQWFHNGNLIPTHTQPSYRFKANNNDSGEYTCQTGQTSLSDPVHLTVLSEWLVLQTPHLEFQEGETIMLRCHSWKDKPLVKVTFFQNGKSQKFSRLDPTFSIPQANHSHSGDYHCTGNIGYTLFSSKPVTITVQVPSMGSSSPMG

T2: hFcgRIIb (human, UniProt P31994 43-217)
T2 construct: extracellular domain; also called human FcγRIIb
T2 sequence (looked up): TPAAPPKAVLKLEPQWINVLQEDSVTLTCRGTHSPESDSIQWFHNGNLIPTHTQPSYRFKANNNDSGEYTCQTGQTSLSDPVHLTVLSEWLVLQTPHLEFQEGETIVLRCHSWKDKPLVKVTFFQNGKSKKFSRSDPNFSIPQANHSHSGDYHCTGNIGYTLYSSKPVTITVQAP

T3: hFcgRIIaH (human, UniProt P12318 34-217)
T3 construct: extracellular domain; also called human FcγRIIa type H (H131)
T3 sequence (looked up): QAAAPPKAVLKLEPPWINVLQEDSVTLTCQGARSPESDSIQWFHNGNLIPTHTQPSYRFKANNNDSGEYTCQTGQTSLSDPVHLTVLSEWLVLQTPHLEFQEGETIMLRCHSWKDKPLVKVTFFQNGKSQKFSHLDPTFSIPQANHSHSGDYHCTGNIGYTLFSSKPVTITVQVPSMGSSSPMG


Columns and labels:
[1] = target: T4, hFcgRIIIaV (human, UniProt P08637 17-208); experiment: SPR 25C; relative to A375-G1T3/B167-Lamlib;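 further: SPR with antibody captured on an anti-human Fab-lambda chip, human FcγR analyte at 8 nM for FcγRIa or 1000 nM for the others, pH 7.4, FcγR RU per captured antibody unit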
T4 construct: extracellular domain; also called human FcγRIIIa allotype V158

[2] = target: T5, hFcgRIa (human, UniProt P12314 16-292); experiment: SPR 25C; relative to A375-G1T3/B167-Lamlib;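 further: SPR with antibody captured on an anti-human Fab-lambda chip, human FcγR analyte at 8 nM for FcγRIa or 1000 nM for the others, pH 7.4, FcγR RU per captured antibody unit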
T5 construct: extracellular domain; also called human FcγRIa; FcγRI

[3] = target: T6, hFcgRIIIaF (human, UniProt P08637 17-208); experiment: SPR 25C; relative to A375-G1T3/B167-Lamlib;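 further: SPR with antibody captured on an anti-human Fab-lambda chip, human FcγR analyte at 8 nM for FcγRIa or 1000 nM for the others, pH 7.4, FcγR RU per captured antibody unit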
T6 construct: extracellular domain; also called human FcγRIIIa allotype F158

[4] = target: T1, hFcgRIIaR; experiment: SPR 25C; relative to A375-G1T3/B167-Lamlib;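 further: SPR with antibody captured on an anti-human Fab-lambda chip, human FcγR analyte at 8 nM for FcγRIa or 1000 nM for the others, pH 7.4, FcγR RU per captured antibody unit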
[5] = target: T2, hFcgRIIb; experiment: SPR 25C; relative to A375-G1T3/B167-Lamlib
[6] = target: T3, hFcgRIIaH; experiment: SPR 25C; relative to A375-G1T3/B167-Lamlib
[7] = target: T4, hFcgRIIIaV; experiment: SPR 25C
[8] = target: T5, hFcgRIa; experiment: SPR 25C
[9] = target: T6, hFcgRIIIaF; experiment: SPR 25C
[10] = target: T1, hFcgRIIaR; experiment: SPR 25C
[11] = target: T2, hFcgRIIb; experiment: SPR 25C
[12] = target: T3, hFcgRIIaH; experiment: SPR 25C
[13] = target: human FcRn (human, UniProt P55899 24-290; P61769 21-119, limits assumed); experiment: SPR 25C pH 6.0, steady state;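 further: antibody captured on chip via anti-human Fab-lambda ligand, human FcRn injected as analyte in 50 mM phosphate buffer with 150 mM NaCl and P20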
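Wherever binding per 1RU of antibody is given: biacore SPR with antibody captured on an anti-human Fab lambda chip, human FcγR injected at 1000 nM (FcγRIa at 8 nM) in pH 7.4 phosphate buffer.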

T5 sequence (P12314 16-292): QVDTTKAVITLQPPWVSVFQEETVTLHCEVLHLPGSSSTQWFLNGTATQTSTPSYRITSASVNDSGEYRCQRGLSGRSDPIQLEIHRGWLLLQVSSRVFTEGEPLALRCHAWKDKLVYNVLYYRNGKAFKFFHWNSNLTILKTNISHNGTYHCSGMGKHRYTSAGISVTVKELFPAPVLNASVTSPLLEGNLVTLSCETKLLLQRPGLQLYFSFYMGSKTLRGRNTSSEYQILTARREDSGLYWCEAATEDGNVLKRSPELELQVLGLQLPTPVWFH
T4 sequence (P08637 17-208 F176V): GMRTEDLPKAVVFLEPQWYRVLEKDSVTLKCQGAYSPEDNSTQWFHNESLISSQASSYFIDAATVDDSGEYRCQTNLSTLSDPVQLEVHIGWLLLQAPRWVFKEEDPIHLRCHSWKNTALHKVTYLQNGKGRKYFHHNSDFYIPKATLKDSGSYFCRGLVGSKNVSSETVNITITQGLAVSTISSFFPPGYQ
T6 sequence (P08637 17-208): as the sequence (P08637 17-208 F176V) above, with V160F counted along it

Binder | relative binding amount [1] | relative binding amount [2] | relative binding amount [3] | relative binding amount [4] | relative binding amount [5] | relative binding amount [6] | binding per 1RU of antibody [7] [RU] | binding per 1RU of antibody [8] [RU] | binding per 1RU of antibody [9] [RU] | binding per 1RU of antibody [10] [RU] | binding per 1RU of antibody [11] [RU] | binding per 1RU of antibody [12] [RU] | Kd [13] [nM]
A375-G1T3/B167-Lamlib (antibody, human IgG1, lambda, copies: 2 + 2) heavy: not shown light: QSALTQPPSASGSPGQTVTISCTGTRYDVGYYEYVSWYQQHPGKAPKLMIYETSKRLSGVPDRFSGSKSGNTASLTVSGLQAEDEADYYCSSYRYEHQVSFGGGTKLTVLGQPKAAPSVTLFPPSSEELQANKATLVCLISDFYPGAVTVAWKADSSPVKAGVETTTPSKQSNNKYAASSYLSLTPEQWKSHRSYSCQVTHEGSTVEKTVAPTECS | 1 | 1 | 1 | 1 | 1 | 1 | 0.07 | 0.0813 | 0.0213 | 0.0463 | 0.011 | 0.0567 | 1270
A375-TT11/B167-Lamlib (antibody, human IgG1, lambda, copies: 2 + 2) heavy: EVQLVESGGGLVKPGGSLRLSCAASGFTFSTFTMNWVRQAPGKGLEWVSSISSKSTYIEYADSFKVRFTISRDNAKNSLYLQMNSLRAEDTAVYYCARYGAKNFLNWVFDYWGQGTLVTVSSASTKGPSVFPLAPSSKSTSGGTAALGCLVKDYFPEPVTVSWNSGALTSGVHTFPAVLQSSGLYSLSSVVTVPSSSLGTQTYICNVNHKPSNTKVDKKVEPKSCDKTHTCPPCPAPEYLGGDSVFLFPPKPKDVLMISRTPEVTCVVVDVSHEDPEVKFNWYVDGVEVHNAKTKPREEQYNSTYRVVSVLPVLHQDWLNGKEYKCKVSNKALPKPIEKTISKAKGQPREPQVYTLPPSREEMTKNQVSLTCLVKGFYPSDIAVEWESNGQPENNYKTTPPVLDSDGSFFLYSKLTVDKSRWQQGNVFSCSVMHEALHNHYTQKSLSLSP light: QSALTQPPSASGSPGQTVTISCTGTRYDVGYYEYVSWYQQHPGKAPKLMIYETSKRLSGVPDRFSGSKSGNTASLTVSGLQAEDEADYYCSSYRYEHQVSFGGGTKLTVLGQPKAAPSVTLFPPSSEELQANKATLVCLISDFYPGAVTVAWKADSSPVKAGVETTTPSKQSNNKYAASSYLSLTPEQWKSHRSYSCQVTHEGSTVEKTVAPTECS | -0.01 |  | -0.04 |  | 4.35 | 0.03 | -0.001 |  | -0.0009 |  | 0.0477 | 0.002 | 1560

Further lines, results first:

relative binding amount [1] | relative binding amount [2] | relative binding amount [3] | relative binding amount [4] | relative binding amount [5] | relative binding amount [6] | binding per 1RU of antibody [7] [RU] | binding per 1RU of antibody [8] [RU] | binding per 1RU of antibody [9] [RU] | binding per 1RU of antibody [10] [RU] | binding per 1RU of antibody [11] [RU] | binding per 1RU of antibody [12] [RU] | Kd [13] [nM] | Binder
0.02 | 0.05 | 0.03 | 0.72 | 2.85 | 0.58 | 0.0011 | 0.004 | 0.0007 | 0.0335 | 0.0313 | 0.0328 | 1180 | A375-MY201aPh/B167-Lamlib (antibody, human IgG1, lambda, copies: 2 + 2) heavy: EVQLVESGGGLVKPGGSLRLSCAASGFTFSTFTMNWVRQAPGKGLEWVSSISSKSTYIEYADSFKVRFTISRDNAKNSLYLQMNSLRAEDTAVYYCARYGAKNFLNWVFDYWGQGTLVTVSSASTKGPSVFPLAPSSKSTSGGTAALGCLVKDYFPEPVTVSWNSGALTSGVHTFPAVLQSSGLYSLSSVVTVPSSSLGTQTYICNVNHKPSNTKVDKRVEPKSCDKTHTCPPCPAPELWNGPSVFLFPPKPKDTLMISRTPEVTCVVVDVSDEDPEVKFNWYVDGVEVHNAKTKPREEQYNSTYRVVSVLTVLHQDWLNGKEYKCKVSNKALPKPIEKTISKAKGQPREPQVYTLPPSREEMTKNQVSLTCLVKGFYPSDIAVEWESNGQPENNYKTTPPVLDSDGSFFLYSKLTVDKSRWQQGNVFSCSVMHEALHNHYTQKSLSLSP light: QSALTQPPSASGSPGQTVTISCTGTRYDVGYYEYVSWYQQHPGKAPKLMIYETSKRLSGVPDRFSGSKSGNTASLTVSGLQAEDEADYYCSSYRYEHQVSFGGGTKLTVLGQPKAAPSVTLFPPSSEELQANKATLVCLISDFYPGAVTVAWKADSSPVKAGVETTTPSKQSNNKYAASSYLSLTPEQWKSHRSYSCQVTHEGSTVEKTVAPTECS
0.02 | 0.02 | 0.04 | 0.99 | 4.4 | 0.82 | 0.0015 | 0.002 | 0.0009 | 0.046 | 0.0482 | 0.0466 | 1270 | A375-MY518/B167-Lamlib (antibody, human IgG1, lambda, copies: 2 + 2) heavy: EVQLVESGGGLVKPGGSLRLSCAASGFTFSTFTMNWVRQAPGKGLEWVSSISSKSTYIEYADSFKVRFTISRDNAKNSLYLQMNSLRAEDTAVYYCARYGAKNFLNWVFDYWGQGTLVTVSSASTKGPSVFPLAPSSKSTSGGTAALGCLVKDYFPEPVTVSWNSGALTSGVHTFPAVLQSSGLYSLSSVVTVPSSSLGTQTYICNVNHKPSNTKVDKKVEPKSCDKTHTCPPCPAPELWNGPSVFLFPPKPKDTLMISRTPEVTCVVVDVSDEDPEVKFNWYVDGVEVHNAKTKPREELYNSTYRVVSVLTVLHQDWLNGKEYKCKVSNTALPKPIEKTISKAKGQPREPQVYTLPPSREEMTKNQVSLTCLVKGFYPSDIAVEWESNGQPENNYKTTPPVLDSDGSFFLYSKLTVDKSRWQQGNVFSCSVMHEALHNHYTQKSLSLSP light: QSALTQPPSASGSPGQTVTISCTGTRYDVGYYEYVSWYQQHPGKAPKLMIYETSKRLSGVPDRFSGSKSGNTASLTVSGLQAEDEADYYCSSYRYEHQVSFGGGTKLTVLGQPKAAPSVTLFPPSSEELQANKATLVCLISDFYPGAVTVAWKADSSPVKAGVETTTPSKQSNNKYAASSYLSLTPEQWKSHRSYSCQVTHEGSTVEKTVAPTECS
0.03 | 0.49 | 0.04 | 0.73 | 3.66 | 0.94 | 0.0024 | 0.0396 | 0.0007 | 0.0338 | 0.0401 | 0.0534 | 1190 | A375-MY201a/B167-Lamlib (antibody, human IgG1, lambda, copies: 2 + 2) heavy: EVQLVESGGGLVKPGGSLRLSCAASGFTFSTFTMNWVRQAPGKGLEWVSSISSKSTYIEYADSFKVRFTISRDNAKNSLYLQMNSLRAEDTAVYYCARYGAKNFLNWVFDYWGQGTLVTVSSASTKGPSVFPLAPSSKSTSGGTAALGCLVKDYFPEPVTVSWNSGALTSGVHTFPAVLQSSGLYSLSSVVTVPSSSLGTQTYICNVNHKPSNTKVDKRVEPKSCDKTHTCPPCPAPELLNGPSVFLFPPKPKDTLMISRTPEVTCVVVDVSDEDPEVKFNWYVDGVEVHNAKTKPREEQYNSTYRVVSVLTVLHQDWLNGKEYKCKVSNKALPKPIEKTISKAKGQPREPQVYTLPPSREEMTKNQVSLTCLVKGFYPSDIAVEWESNGQPENNYKTTPPVLDSDGSFFLYSKLTVDKSRWQQGNVFSCSVMHEALHNHYTQKSLSLSP light: QSALTQPPSASGSPGQTVTISCTGTRYDVGYYEYVSWYQQHPGKAPKLMIYETSKRLSGVPDRFSGSKSGNTASLTVSGLQAEDEADYYCSSYRYEHQVSFGGGTKLTVLGQPKAAPSVTLFPPSSEELQANKATLVCLISDFYPGAVTVAWKADSSPVKAGVETTTPSKQSNNKYAASSYLSLTPEQWKSHRSYSCQVTHEGSTVEKTVAPTECS
